Molecular target: Plasmodium vivax Duffy binding protein region II (DBP-RII), recombinant (Plasmodium vivax) (UniProt P22290)
Test: ITC; DARC1-60 at 1.3 mM titrated into 1.4 mL of 130 µM DBP-RII; PBS; 10°C; independent two-site binding model after subtraction of both controls; molar ratios in monomers of DBP-RII

UniProt P22290, sequence (P22290 211-525): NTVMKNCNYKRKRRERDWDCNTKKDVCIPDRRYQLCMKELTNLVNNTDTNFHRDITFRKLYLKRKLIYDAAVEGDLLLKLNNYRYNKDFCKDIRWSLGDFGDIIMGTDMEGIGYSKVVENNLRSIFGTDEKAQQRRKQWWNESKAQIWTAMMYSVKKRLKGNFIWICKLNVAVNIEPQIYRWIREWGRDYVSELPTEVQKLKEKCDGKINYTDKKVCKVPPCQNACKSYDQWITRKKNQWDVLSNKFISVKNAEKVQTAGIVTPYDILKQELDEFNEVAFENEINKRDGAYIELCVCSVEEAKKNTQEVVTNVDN

How did the Kd1 (first binding event, heterotrimer; two independent sites fit) turn out when “DARC N-terminal ectodomain, residues 1-60, unsulfated, three cysteines mutated to alanine (from UniProt Q16570 1-60) (domain or fragment)” was run?
The Kd1 (first binding event, heterotrimer; two independent sites fit) was 2180 nM.

What about the Kd2 (second binding event, heterotetramer; two independent sites fit) of the same substance?
Its Kd2 (second binding event, heterotetramer; two independent sites fit) is 88.5 nM.

What about the Kd of the first binding event (two independent sites fit) of the same substance?
Its Kd of the first binding event (two independent sites fit) is 2180 nM.

What about the dH1 (first binding event) of the same substance?
Its dH1 (first binding event) is -2.66 kcal/mol.

What about the dH2 (second binding event) of the same substance?
The dH2 (second binding event) was -3.34 kcal/mol.

And the n1 (first binding event, per monomer of DBP-RII)?
The n1 (first binding event, per monomer of DBP-RII) was 0.44.

And the n2 (second binding event, per monomer of DBP-RII)?
Its n2 (second binding event, per monomer of DBP-RII) is 0.5.

And the stoichiometry N?
The stoichiometry N was 1.
